B1: GluA4-Fc (amino-terminal domain of GluA4 fused to huIgG1-Fc and an Avi tag) (Fc fusion)
chain: AFPSSVQIGGLFIRNTDQEYTAFRLAIFLHNTSPNASEAPFNLVPHVDNIETANSFAVTNAFCSQYSRGVFAIFGLYDKRSVHTLTSFCSALHISLITPSFPTEGESQFVLQLRPSLRGALLSLLDHYEWNCFVFLYDTDRGYSILQAIMEKAGQNGWHVSAICVENFNDVSYRQLLEELDRRQEKKFVIDCEIERLQNILEQIVSVGKHVKGYHYIIANLGFKDISLERFIHGGANVTGFQLVDFNTPMVTKLMDRWKKLDQREYPGSETPPKYTSALTYDGVLVMAETFRSLRRQKIDISRRGNAGDCLANPAAPWGQGIDMERTLKQVRIQGLTGNVQFDHYGRRVNYTMDVFELKSTGPRKVGYWNDMDKLVLIQD
modifications: biotin on the Avi tag in the biotinylated form (roughly 76% biotinylated)

Columns and labels:
[1] = target: Fc (huIgG1-Fc fused to the Avi tag) (human); test: SEC
SEC = target: the molecule itself; test: SEC
[2] = target: DARPin 2B7 fused to the measles virus H protein (DARPin-H); test: flow cytometry on cells
[3] = target: DARPin SB4 fused to the measles virus H protein (DARPin-H); test: flow cytometry on cells
[4] = target: four DARPins (SD8, SK14, 2K19, 2B7) and the scFv Fab7; test: flow cytometry on cells

Row | Molecule | stoichiometry N [1] | stoichiometry N (SEC) | Kd [2] [nM] | Kd [3] [nM] | Kd [4] [nM]
1 | Fc (huIgG1-Fc fused to the Avi tag) (domain or fragment) | 2 | – | – | – | –
2 | B1 | – | 4 | 8.4 | 19 | 1.6 to 3.7

Source: PMC6077149 (Molecular Therapy. Methods & Clinical Development, 2018)
